From PMC3154423

How the values were obtained:
Test in all cases: ITC
[1] = target: Jun bZIP R272A;Fos bZIP K148A (human;human, UniProt P05412;P01100 252-315;137-200, R272A|K148A)
[2] = target: Jun bZIP R261A;Fos bZIP R155A (human;human, UniProt P05412;P01100 252-315;137-200, R261A|R155A)
Jun-Jun bZIP K268A = Jun-Jun bZIP K268A (human, UniProt P05412 252-315, K268A)
[3] = target: Jun bZIP R259A;Fos bZIP R144A (human;human, UniProt P05412;P01100 252-315;137-200, R259A|R144A)
[4] = target: Jun bZIP K268A;Fos bZIP R144A (human;human, UniProt P05412;P01100 252-315;137-200, K268A|R144A)
Sequence of Jun bZIP K268A;Fos bZIP R144A (P05412 252-315 K268A, chain 1 of 2): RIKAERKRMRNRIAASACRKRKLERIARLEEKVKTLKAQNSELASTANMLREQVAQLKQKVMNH
Sequence of Jun bZIP K268A;Fos bZIP R144A (P01100 137-200 R144A, chain 2 of 2): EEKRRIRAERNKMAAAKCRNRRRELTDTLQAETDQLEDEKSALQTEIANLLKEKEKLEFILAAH

[5] = target: Jun bZIP R270A;Fos bZIP R158A (human;human, UniProt P05412;P01100 252-315;137-200, R270A|R158A)
Sequence of Jun bZIP R270A;Fos bZIP R158A (P05412 252-315 R270A, chain 1 of 2): as the sequence (P05412 252-315 K268A, chain 1 of 2) above, with A17K, R19A counted along it
Sequence of Jun bZIP R270A;Fos bZIP R158A (P01100 137-200 R158A, chain 2 of 2): as the sequence (P01100 137-200 R144A, chain 2 of 2) above, with A8R, R22A counted along it

[6] = target: Jun bZIP R261A;Fos bZIP R144A (human;human, UniProt P05412;P01100 252-315;137-200, R261A|R144A)
Sequence of Jun bZIP R261A;Fos bZIP R144A (P05412 252-315 R261A, chain 1 of 2): as the sequence (P05412 252-315 K268A, chain 1 of 2) above, with R10A, A17K counted along it
Sequence of Jun bZIP R261A;Fos bZIP R144A (P01100 137-200 R144A, chain 2 of 2): as the sequence (P01100 137-200 R144A, chain 2 of 2) above

[7] = target: Jun bZIP K258A;Fos bZIP R143A (human;human, UniProt P05412;P01100 252-315;137-200, K258A|R143A)
Sequence of Jun bZIP K258A;Fos bZIP R143A (P05412 252-315 K258A, chain 1 of 2): as the sequence (P05412 252-315 K268A, chain 1 of 2) above, with K7A, A17K counted along it
Sequence of Jun bZIP K258A;Fos bZIP R143A (P01100 137-200 R143A, chain 2 of 2): as the sequence (P01100 137-200 R144A, chain 2 of 2) above, with R7A, A8R counted along it

[8] = target: Jun bZIP R263A;Fos bZIP K148A (human;human, UniProt P05412;P01100 252-315;137-200, R263A|K148A)
Sequence of Jun bZIP R263A;Fos bZIP K148A (P05412 252-315 R263A, chain 1 of 2): as the sequence (P05412 252-315 K268A, chain 1 of 2) above, with R12A, A17K counted along it
Sequence of Jun bZIP R263A;Fos bZIP K148A (P01100 137-200 K148A, chain 2 of 2): as the sequence (P01100 137-200 R144A, chain 2 of 2) above, with A8R, K12A counted along it

[9] = target: Jun bZIP K273A;Fos bZIP R144A (human;human, UniProt P05412;P01100 252-315;137-200, K273A|R144A)
Sequence of Jun bZIP K273A;Fos bZIP R144A (P05412 252-315 K273A, chain 1 of 2): as the sequence (P05412 252-315 K268A, chain 1 of 2) above, with A17K, K22A counted along it
Sequence of Jun bZIP K273A;Fos bZIP R144A (P01100 137-200 R144A, chain 2 of 2): as the sequence (P01100 137-200 R144A, chain 2 of 2) above

[10] = target: Jun bZIP R259A;Fos bZIP R143A (human;human, UniProt P05412;P01100 252-315;137-200, R259A|R143A)
Sequence of Jun bZIP R259A;Fos bZIP R143A (P05412 252-315 R259A, chain 1 of 2): as the sequence (P05412 252-315 K268A, chain 1 of 2) above, with R8A, A17K counted along it
Sequence of Jun bZIP R259A;Fos bZIP R143A (P01100 137-200 R143A, chain 2 of 2): as the sequence (P01100 137-200 R144A, chain 2 of 2) above, with R7A, A8R counted along it

[11] = target: Jun bZIP R263A;Fos bZIP R155A (human;human, UniProt P05412;P01100 252-315;137-200, R263A|R155A)
Sequence of Jun bZIP R263A;Fos bZIP R155A (P05412 252-315 R263A, chain 1 of 2): as the sequence (P05412 252-315 K268A, chain 1 of 2) above, with R12A, A17K counted along it
Sequence of Jun bZIP R263A;Fos bZIP R155A (P01100 137-200 R155A, chain 2 of 2): as the sequence (P01100 137-200 R144A, chain 2 of 2) above, with A8R, R19A counted along it

[12] = target: Jun bZIP R259A;Fos bZIP K148A (human;human, UniProt P05412;P01100 252-315;137-200, R259A|K148A)
Sequence of Jun bZIP R259A;Fos bZIP K148A (P05412 252-315 R259A, chain 1 of 2): as the sequence (P05412 252-315 K268A, chain 1 of 2) above, with R8A, A17K counted along it
Sequence of Jun bZIP R259A;Fos bZIP K148A (P01100 137-200 K148A, chain 2 of 2): as the sequence (P01100 137-200 R144A, chain 2 of 2) above, with A8R, K12A counted along it

[13] = target: Jun bZIP K258A;Fos bZIP R157A (human;human, UniProt P05412;P01100 252-315;137-200, K258A|R157A)
Sequence of Jun bZIP K258A;Fos bZIP R157A (P05412 252-315 K258A, chain 1 of 2): as the sequence (P05412 252-315 K268A, chain 1 of 2) above, with K7A, A17K counted along it
Sequence of Jun bZIP K258A;Fos bZIP R157A (P01100 137-200 R157A, chain 2 of 2): as the sequence (P01100 137-200 R144A, chain 2 of 2) above, with A8R, R21A counted along it

[14] = target: Jun bZIP K268A;Fos bZIP K148A (human;human, UniProt P05412;P01100 252-315;137-200, K268A|K148A)
Sequence of Jun bZIP K268A;Fos bZIP K148A (P05412 252-315 K268A, chain 1 of 2): as the sequence (P05412 252-315 K268A, chain 1 of 2) above
Sequence of Jun bZIP K268A;Fos bZIP K148A (P01100 137-200 K148A, chain 2 of 2): as the sequence (P01100 137-200 R144A, chain 2 of 2) above, with A8R, K12A counted along it

[15] = target: Jun bZIP K273A;Fos bZIP R157A (human;human, UniProt P05412;P01100 252-315;137-200, K273A|R157A)
Sequence of Jun bZIP K273A;Fos bZIP R157A (P05412 252-315 K273A, chain 1 of 2): as the sequence (P05412 252-315 K268A, chain 1 of 2) above, with A17K, K22A counted along it
Sequence of Jun bZIP K273A;Fos bZIP R157A (P01100 137-200 R157A, chain 2 of 2): as the sequence (P01100 137-200 R144A, chain 2 of 2) above, with A8R, R21A counted along it

Sequence of Jun-Jun bZIP K268A (P05412 252-315 K268A): as the sequence (P05412 252-315 K268A, chain 1 of 2) above
Sequence of Jun bZIP R261A;Fos bZIP R155A (P05412 252-315 R261A, chain 1 of 2): as the sequence (P05412 252-315 K268A, chain 1 of 2) above, with R10A, A17K counted along it
Sequence of Jun bZIP R261A;Fos bZIP R155A (P01100 137-200 R155A, chain 2 of 2): as the sequence (P01100 137-200 R144A, chain 2 of 2) above, with A8R, R19A counted along it
Sequence of Jun bZIP R272A;Fos bZIP K148A (P05412 252-315 R272A, chain 1 of 2): as the sequence (P05412 252-315 K268A, chain 1 of 2) above, with A17K, R21A counted along it
Sequence of Jun bZIP R272A;Fos bZIP K148A (P01100 137-200 K148A, chain 2 of 2): as the sequence (P01100 137-200 R144A, chain 2 of 2) above, with A8R, K12A counted along it
Sequence of Jun bZIP R259A;Fos bZIP R144A (P05412 252-315 R259A, chain 1 of 2): as the sequence (P05412 252-315 K268A, chain 1 of 2) above, with R8A, A17K counted along it
Sequence of Jun bZIP R259A;Fos bZIP R144A (P01100 137-200 R144A, chain 2 of 2): as the sequence (P01100 137-200 R144A, chain 2 of 2) above

B1: TRE duplex 15-mer (dsDNA)
DNA 1: CGCGTGACTCACCCC
DNA 2: GGGGTGAGTCACGCG
[1]
  Kd: 710 ± 20 nM
[2]
  Kd: 2460 ± 30 nM
Jun-Jun bZIP K268A
  Kd: 400 ± 20 nM
[3]
  Kd: 15800 ± 620 nM
[4]
  Kd: 1790 ± 20 nM
[5]
  Kd: 1540 ± 50 nM
[6]
  Kd: 1840 ± 80 nM
[7]
  Kd: 860 ± 70 nM
[8]
  Kd: 1130 ± 10 nM
[9]
  Kd: 3590 ± 300 nM
[10]
  Kd: 3490 ± 140 nM
[11]
  Kd: 3880 ± 90 nM
[12]
  Kd: 2260 ± 180 nM
[13]
  Kd: 1500 ± 80 nM
[14]
  Kd: 460 ± 20 nM
[15]
  Kd: 1300 ± 80 nM
